Data reported in US20080219983A1 (TRIMESTER CUSHION, published 2008).
Substitutions are numbered along the chain they refer to. Blank lines part the entries; values can stand above or below the binder they belong to.

How the values were obtained:
[1] = molecular target: T1, Plasma-derived FVIII light chain (UniProt P00451 1668-2351); assay: solid-phase competition: scFv KM33 (0-30 nM) against FVIII light chain (25 nM) binding to immobilised LRP cluster II (FIG. 5)
T1 construct: domain: light chain (a3-A3-C1-C2); Prepared from plasma as in the cited literature; Human by context (the peptides are said to cover human FVIII regions); Residue numbers count on mature FVIII, without the signal peptide; also called LCh; 80-kDa light chain (a3-A3-C1-C2)
T1 sequence (looked up): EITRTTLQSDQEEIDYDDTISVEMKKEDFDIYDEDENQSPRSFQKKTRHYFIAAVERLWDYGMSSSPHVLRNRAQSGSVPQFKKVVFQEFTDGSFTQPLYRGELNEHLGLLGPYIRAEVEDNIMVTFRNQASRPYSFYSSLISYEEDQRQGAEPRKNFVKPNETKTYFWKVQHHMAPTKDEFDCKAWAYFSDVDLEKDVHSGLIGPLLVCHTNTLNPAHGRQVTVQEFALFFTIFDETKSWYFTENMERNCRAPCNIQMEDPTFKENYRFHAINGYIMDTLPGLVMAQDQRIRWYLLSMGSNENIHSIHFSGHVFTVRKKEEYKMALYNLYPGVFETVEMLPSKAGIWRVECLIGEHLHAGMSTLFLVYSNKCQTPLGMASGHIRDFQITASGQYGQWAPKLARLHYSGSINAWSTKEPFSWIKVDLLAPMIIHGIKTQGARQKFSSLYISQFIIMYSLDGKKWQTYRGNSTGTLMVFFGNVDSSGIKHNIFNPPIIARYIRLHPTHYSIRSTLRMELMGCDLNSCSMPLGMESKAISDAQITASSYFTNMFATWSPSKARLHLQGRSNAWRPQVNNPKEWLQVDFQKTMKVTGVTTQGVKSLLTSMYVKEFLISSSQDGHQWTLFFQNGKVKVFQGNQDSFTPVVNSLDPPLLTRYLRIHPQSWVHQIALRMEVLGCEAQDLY
Experimental: (§1) FIG. 5. […] Data represent the mean ±S.D. of three experiments.
(§2) Solid-phase Binding Assays—Recombinant LRP clusters II or IV (1 pmol/well) were adsorbed onto microtiter wells in 50 mM NaHCO₃ (pH 9.8) in a volume of 50 μl for 16 h at 4° C. Wells were blocked with 2% (w/v) HSA, 150 mM NaCl, 5 mM CaCl₂, and 50 mM Tris (pH 7.4) in a volume of 200 μl for 1 h at 37° C. […] Bound ligand was detected by incubating with peroxidase-conjugated monoclonal antibody CLB-CAg 12 in the same buffer for 15 min at 37° C. […] Residual FVIII binding was detected as described above.

[2] = molecular target: T1, Plasma-derived FVIII light chain; assay: solid-phase competition assay: FVIII light chain (25 nM) on immobilised LRP cluster II (1 pmol/well) in the presence of scFv KM33 (0-30 nM); detection with peroxidase-conjugated CLB-CAg 12
Experimental: as §1, §2

[3] = molecular target: T2, Recombinant FVIII/FV^1811-1818 light chain chimera (UniProt P00451 1668-2351); assay: SPR (BIAcore), FVIII/FV1811-1818 light chain chimera captured at 20 fmol/mm2 on immobilised scFv EL14, scFv KM41 40 nM as analyte
T2 construct: domain: light chain (a3-A3-C1-C2); The single substitutions were worked out from the two printed octapeptides; In the assays it was captured on immobilised scFv EL14
T2 sequence: T1 sequence (looked up) with E163S, T164S, K165Y, F168V, K170H
Experimental: Response is indicated as Resonance Units (RU) and is corrected for nonspecific binding.
Surface Plasmon Resonance—The kinetics of protein interactions was determined by surface plasmon resonance (SPR) analysis, employing a BIAcore™2000 biosensor system (Biacore AS, Uppsala, Sweden). […] One control flow-channel was routinely activated and blocked in the absence of protein. […] Dissociation was allowed for 2 min in the same buffer flow. Sensor-chips were regenerated using several pulses of either 100 mM H₃PO₄ or 20 mM EDTA, 1 M NaCl, and 50 mM Hepes (pH 7.4) at a flow rate of 20 μl/min. The association (kₒₙ) and dissociation (koff) rate constants were determined by using the BIAevaluation software 3.1 (Biacore AB, Uppsala, Sweden). Data were corrected for bulk refractive index changes and fitted by nonlinear regression analysis according to a two-site binding model. Equilibrium dissociation constants (kd) were calculated from the ratio koff/kₒₙ. The kd value for low-affinity interactions was estimated using steady-state affinity analysis by using BIAevaluation software.

[4] = molecular target: T1, Plasma-derived FVIII light chain; assay: solid-phase competition assay: FVIII light chain (25 nM) on immobilised LRP cluster II (1 pmol/well) in the presence of scFv KM41 (0-100 nM); detection with peroxidase-conjugated CLB-CAg 12
Experimental: FIG. 4. […] Data represent the mean ±S.D. of three experiments. […] Complexes were allowed to form for 30 min before SPR analysis.
as §2

Ki [1]: ~5 nM
IC50 (read off the curve) [2]: ~7 nM
B1: scFv KM33 (scFv)
scFv: EVQLVESGGGVVQPGRSLRLSCVDSGLTFSSYGMHWVRQAPGAGLEWVAVISYDGNDKYYADSVKGRFAISRDNAKNTLYLQMNSLTIEDTAVYYCAKDLIESNIAEAFWGQGTLVTVSSGGGGSGGGGSGGGGSDIQMTQSPSSLSASVGDTVTIACRASRDIRNDLAWYQQKPGKAPKLLIYATSRLQSGVPSRFSGSGSFTDFTLTINSLQPDDSATYYCLQDSDYPLTFGGGTKVDIKRAAAEQKLISEEDLNGAAHHHHHH
notes: Expressed in E. coli TG1

binding result [3]: no binding (tested: 40 nM)
IC50 (read off the curve) [4]: ~7 nM
B2: scFv KM41 (scFv)
scFv: QVQLLQSAADVKKPGASVKVSCTASGYIFTSYDIDWVRQATGQGLEWMGWMNPNSGNAGFAQKFKGRLTLTRDTSTSTAYMELRRLESEDTAVYYCARSTPHSYSGSGLPPTSDSWGQGTLVTVSSGGGGSGGGGSGGGGSEIVLTQSPGTLSLSPGERATLSCRASQSVSSSFLGWYQQKPGQAPRLLIYGASSRATGIPDRFSGSGSGTDFTLTISRLEPEDFAVYYCQQYGISPLTFGGGTKLEIKRAAAEQKLISEEDLNGAAHHHHHH
notes: Expressed in E. coli TG1
